# From patent US20250376533A1 (FUTUREGEN BIOPHARMACEUTICAL BEIJING, published 2025)
# Substitutions are numbered along the chain they refer to. In names and notes the source's numbering stands.
# T1: rat CD40 antigen (ACROBiosystems) (rat, UniProt A6JXD6 20-193)
# T1 construct: Bought antigen coated on ELISA plates; construct not described
# T1 sequence: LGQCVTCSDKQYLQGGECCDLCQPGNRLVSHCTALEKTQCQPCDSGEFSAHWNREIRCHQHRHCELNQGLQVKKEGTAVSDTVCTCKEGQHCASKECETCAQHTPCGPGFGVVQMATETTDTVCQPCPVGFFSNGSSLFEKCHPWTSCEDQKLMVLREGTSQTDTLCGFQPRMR
# B1: anti-PD-L1/CD40 bispecific antibody 1606 (bispecific antibody, human IgG2, kappa)
# light: DIQMTQSPSSLSASVGDRVTITCRASQDIRNYLNWYQQKPGKAPKLLIYYTSRRDSGVPSRFSGSGSGTDYTLTISSLQPEDFATYFCQQGKTLPWTFGGGTKVEIKRTVAAPSVFIFPPSDEQLKSGTASVVCLLNNFYPREAKVQWKVDNALQSGNSQESVTEQDSKDSTYSLSSTLTLSKADYEKHKVYACEVTHQGLSSPVTKSFNRGEC
# heavy: EVQLVESGGGLVQPGGSLRLSCAASGFTFSDYYMSWVRQAPGKGLEWVGFIRNKANGYTTEYAASVKGRFTISRDNSKNTLYLQMNSLRAEDTAVYYCARYGGLRQGWYFDVWGQGTLVTVSSASTKGPSVFPLAPCSRSTSESTAALGCLVKDYFPEPVTVSWNSGALTSGVHTFPAVLQSSGLYSLSSVVTVPSSNFGTQTYTCNVDHKPSNTKVDKTVERKCCVECPPCPAPPVAGPSVFLFPPKPKDTLMISRTPEVTCVVVDVSHEDPEVQFNWYVDGVEVHNAKTKPREEQFNSTFRVVSVLTVVHQDWLNGKEYKCKVSNKGLPAPIEKTISKTKGQPREPQVYTLPPSREEMTKNQVSLTCLVKGFYPSDIAVEWESNGQPENNYKTTPPMLDSDGSFFLYSKLTVDKSRWQQGNVFSCSVMHEALHNHYTQKSLSLSPGGGGGSGGGGSGGGGSGEVQLVESGGGLVQPGGSLRLSCAASGFTFDYYTQCWFRQAPGKEREWVSCISSSEGSTYYADSVKGRFTISRDNSKNTVYLQMNSLKTEDTAVYYCAARKGGPLTIENFFDYWGQGTQVTVSS
# notes: First polypeptide chain = anti-CD40 light chain; second polypeptide chain = anti-CD40 heavy chain with the 1541 VHH joined to its C-terminus by a G4S linker
# B2: anti-PD-L1/CD40 bispecific antibody 1609 (bispecific antibody, human IgG2, kappa)
# light: B1 light with D28T, R30S, N31S, R53T, R54L, D55Q, F87Y, K92N, T93A, L94Y
# heavy: B1 heavy with D31N, N79S, R105K, Q106I, V112L
# notes: as for B1
# B3: anti-PD-L1/CD40 bispecific antibody 1608 (bispecific antibody, human IgG2, kappa)
# light: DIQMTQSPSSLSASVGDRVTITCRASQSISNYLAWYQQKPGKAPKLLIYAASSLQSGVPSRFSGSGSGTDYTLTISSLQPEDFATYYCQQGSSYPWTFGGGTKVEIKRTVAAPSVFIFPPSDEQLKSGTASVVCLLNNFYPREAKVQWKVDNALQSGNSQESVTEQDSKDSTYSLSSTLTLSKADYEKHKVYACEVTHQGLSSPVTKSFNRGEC
# heavy: B1 heavy with D31N, N79S, S87R, R105K, Q106V, V112L
# notes: as for B1
# B4: anti-PD-L1/CD40 bispecific antibody 1607 (bispecific antibody, human IgG2, kappa)
# light: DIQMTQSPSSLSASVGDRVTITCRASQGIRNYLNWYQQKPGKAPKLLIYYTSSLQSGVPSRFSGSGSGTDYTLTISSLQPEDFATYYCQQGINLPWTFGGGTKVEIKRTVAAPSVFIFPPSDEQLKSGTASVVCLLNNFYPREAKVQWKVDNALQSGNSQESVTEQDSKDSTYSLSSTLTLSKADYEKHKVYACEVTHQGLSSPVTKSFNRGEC
# heavy: B1 heavy with N79S, R105K, Q106K, V112L
# notes: as for B1
# Molecular target: T2, CD40 on HEK-Blue CD40L cells (InvivoGen) (UniProt P25942 21-277, limits assumed)
# Test: cell-based or functional assay
# T2 sequence (P25942 21-277 limits assumed): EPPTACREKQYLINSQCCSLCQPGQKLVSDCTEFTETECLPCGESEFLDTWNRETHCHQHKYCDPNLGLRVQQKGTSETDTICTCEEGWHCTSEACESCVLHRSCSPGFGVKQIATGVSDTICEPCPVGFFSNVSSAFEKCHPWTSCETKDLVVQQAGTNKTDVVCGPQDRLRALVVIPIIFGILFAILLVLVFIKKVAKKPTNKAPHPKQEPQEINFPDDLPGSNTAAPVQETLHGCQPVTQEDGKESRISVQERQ
"CD40 agonistic activity (A)/(B) Ratio, EC50 without over with CHO/PD-L1","CD40 agonistic activity EC50 (nM) with CHO/PD-L1 (B), SEAP reporter [nM]","CD40 agonistic activity EC50 (nM) without CHO/PD-L1 (A), SEAP reporter [nM]",Binder
3.7,0.017,0.061,B1
28,0.02,0.556,B2
20.2,0.02,0.396,B3
2.4,0.012,0.029,B4

# Molecular target: T3, human CD40 antigen (ACROBiosystems) (human, UniProt P25942 21-193)
# T3 construct: Bought antigen coated on ELISA plates; construct not described
# Test: bridging ELISA: coated human CD40, serially diluted bispecific antibody, detection with biotin-labeled human PD-L1 and streptavidin-HRP, OD450
# Procedure: Antigen human CD40 (purchased from ACROBiosystems) was coated with 1 μg/mL carbonate buffer (pH=9.6) in an ELISA plate at 100 μL per well, followed by incubation at 4° C. overnight. The wells were washed 5 times with PBST. 300 μL/well of PBST containing 1% BSA was added to block the wells, and the plate was incubated at room temperature for 1 hour. The wells were washed 5 times with PBST. […] The wells were washed 5 times with PBST. Biotin-labeled human PD-L1 (FutureGen Biopharmaceutical) diluted with PBST containing 1% BSA was added at 100 μL per well, and the plate was incubated at room temperature for 1 hour. The wells were washed 5 times with PBST. Streptavidin-HRP (BioLegend, Cat. No. 405210) diluted with PBST containing 1% BSA was added at 100 μL per well, and the plate was incubated at room temperature for 30 minutes. Colorimetric substrate TMB was added at 100 μL per well and allowed to develop color at room temperature for 10 minutes, followed by the addition of 1 M sulfuric acid to terminate the reaction. The OD_[…] was read on a microplate reader to analyze the results, and the EC₅₀ was calculated using a 4-parameter fit binding curve.
# T3 sequence (P25942 21-193 limits assumed): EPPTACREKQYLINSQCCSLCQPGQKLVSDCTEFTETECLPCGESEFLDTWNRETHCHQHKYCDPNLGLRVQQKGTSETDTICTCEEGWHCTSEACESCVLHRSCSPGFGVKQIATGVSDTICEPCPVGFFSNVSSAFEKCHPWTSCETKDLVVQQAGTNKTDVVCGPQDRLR
row,EC50 [nM],Binder
1,0.04,B1
2,0.039,B2
3,0.029,B3
4,0.032,B4

# Molecular target: T4, human PD-L1 antigen (ACROBiosystems) (human, UniProt Q9NZQ7 19-238)
# T4 construct: Bought antigen coated on ELISA plates
# Test: ELISA, coated antigen
# Procedure: (§1) The binding ability of bispecific antibody to human PD-L1 and human CD40, as well as the species specificity, was detected using an enzyme-linked immunosorbent assay (ELISA). The specific method is as follows: human PD-L1, cynomolgus PD-L1, rat PD-L1, mouse PD-L1, human CD40, cynomolgus CD40, rat CD40, and mouse CD40 antigens (all purchased from ACROBiosystems) were coated with 1 μg/mL carbonate buffer (pH=9.6) in an ELISA plate at 100 μL per well, followed by incubation at 4° C. overnight. The wells were washed 5 times with PBST. 300 μL/well of PBST containing 1% BSA was added to block the wells, and the plate was incubated at room temperature for 1 hour. The wells were washed 5 times with PBST. […] The wells were washed 5 times with PBST. […] The wells were washed 5 times with PBST. Colorimetric substrate TMB was added at 100 μL per well and allowed to develop color at room temperature for 10 minutes, followed by the addition of 1 M sulfuric acid to terminate the reaction. The OD_{450 nm} was read on a microplate reader to analyze the results, and the EC₅₀ was calculated using a 4-parameter fit binding curve.
# (§2) These bispecific antibodies are not able to bind to rat PD-L1 and CD40 or mouse PD-L1 and CD40.
# T4 sequence (Q9NZQ7 19-238 limits assumed): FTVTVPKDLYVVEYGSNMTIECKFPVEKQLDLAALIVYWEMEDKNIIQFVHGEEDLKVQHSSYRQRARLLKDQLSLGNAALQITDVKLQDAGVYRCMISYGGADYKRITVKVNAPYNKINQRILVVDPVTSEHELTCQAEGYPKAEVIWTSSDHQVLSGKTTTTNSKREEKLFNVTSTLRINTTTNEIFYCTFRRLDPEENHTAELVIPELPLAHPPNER
row,EC50 [nM],Binder
1,0.039,B1
2,0.034,B2
3,0.038,B3
4,0.036,B4

# Molecular target: T1, rat CD40 antigen (ACROBiosystems)
# Test: ELISA, coated antigen
# Procedure: as §1, §2
row,binding result,Binder
1,no binding,B1
2,no binding,B2
3,no binding,B3
4,no binding,B4

# Molecular target: T5, mouse CD40 antigen (ACROBiosystems) (mouse, UniProt P27512 24-193, limits assumed)
# T5 construct: Bought antigen coated on ELISA plates; construct not described
# Test: ELISA, coated antigen
# Procedure: as §1, §2
# T5 sequence (P27512 24-193 limits assumed): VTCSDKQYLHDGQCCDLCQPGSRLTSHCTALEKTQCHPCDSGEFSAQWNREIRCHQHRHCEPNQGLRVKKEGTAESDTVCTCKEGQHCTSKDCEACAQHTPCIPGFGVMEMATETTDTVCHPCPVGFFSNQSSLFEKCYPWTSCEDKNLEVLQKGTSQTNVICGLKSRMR
row,binding result,Binder
1,no binding,B1
2,no binding,B2
3,no binding,B3
4,no binding,B4

# Molecular target: T6, mouse PD-L1 antigen (ACROBiosystems) (mouse, UniProt Q9EP73 19-239)
# T6 construct: Bought antigen coated on ELISA plates; construct not described
# Test: ELISA, coated antigen
# Procedure: as §1, §2
# T6 sequence (Q9EP73 19-239 limits assumed): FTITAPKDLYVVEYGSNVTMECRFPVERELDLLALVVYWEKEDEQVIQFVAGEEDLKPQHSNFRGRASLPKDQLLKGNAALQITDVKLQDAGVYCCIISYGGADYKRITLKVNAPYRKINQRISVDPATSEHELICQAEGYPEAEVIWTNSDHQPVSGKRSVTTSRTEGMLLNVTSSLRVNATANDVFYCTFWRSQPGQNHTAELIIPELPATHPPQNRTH
row,binding result,Binder
1,no binding,B1
2,no binding,B2
3,no binding,B3
4,no binding,B4

# Molecular target: T7, cynomolgus PD-L1 antigen (ACROBiosystems) (cynomolgus, UniProt G7PSE7 19-238)
# T7 construct: Bought antigen coated on ELISA plates; construct not described
# Test: ELISA, coated antigen
# Procedure: as §1, §2
# T7 sequence (G7PSE7 entry or part of it): as the sequence (Q9NZQ7 19-238 limits assumed) above, with A33T, A34S, S62N, R68Q, Q82R, F173L, T185A, T192I, H215L counted along it
row,EC50 [nM],Binder
1,0.022,B1
2,0.016,B2
3,0.019,B3
4,0.019,B4

# Molecular target: T8, cynomolgus CD40 antigen (ACROBiosystems) (cynomolgus, UniProt G7PG38 21-193)
# T8 construct: Bought antigen coated on ELISA plates; construct not described
# Test: ELISA, coated antigen
# Procedure: as §1, §2
row,EC50 [nM],Binder
1,0.02,B1
2,0.019,B2
3,0.02,B3
4,0.016,B4

# Molecular target: T9, rat PD-L1 antigen (ACROBiosystems) (rat, UniProt D4AE25 19-239)
# T9 construct: Bought antigen coated on ELISA plates; construct not described
# Test: ELISA, coated antigen
# Procedure: as §1, §2
# T9 sequence (D4AE25 entry or part of it limits assumed): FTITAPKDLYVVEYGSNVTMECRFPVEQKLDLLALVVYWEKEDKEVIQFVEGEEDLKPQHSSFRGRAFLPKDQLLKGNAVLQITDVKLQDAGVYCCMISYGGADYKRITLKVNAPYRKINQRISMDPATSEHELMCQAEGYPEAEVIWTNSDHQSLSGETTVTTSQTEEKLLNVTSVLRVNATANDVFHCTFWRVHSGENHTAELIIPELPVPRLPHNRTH
row,binding result,Binder
1,no binding,B1
2,no binding,B2
3,no binding,B3
4,no binding,B4

# Molecular target: T3, human CD40 antigen (ACROBiosystems)
# Test: ELISA, coated antigen
# Procedure: as §1, §2
row,EC50 [nM],Binder
1,0.024,B1
2,0.021,B2
3,0.022,B3
4,0.02,B4

# Molecular target: T2, CD40 on HEK-Blue CD40L cells (InvivoGen)
# Test: flow cytometry, competition with 10 nM Biotin-CD40L on HEK-Blue CD40L cells
# Procedure: The blocking effect of bispecific antibodies on CD40/CD40L binding was tested using HEK-Blue CD40L cells that highly express CD40. The specific method is as follows: HEK-Blue CD40L cells were collected and resuspended in pre-cooled PBS containing 2% FBS at a density of 1E7 cells/mL, and then added to a 96-well plate at 50 μL per well, i.e., 5E5 cells/well. Biotin-CD40L (FutureGen Biopharmaceutical) and serially diluted bispecific antibody were then added at 50 μL per well, with a final concentration of Biotin-CD40L of 10 nM, and the plate was incubated at 4° C. for 1 hour. The wells were washed twice with pre-cooled PBS. Streptavidin-PE (BioLegend, Cat. No. 405203) diluted in pre-cooled PBS containing 2% FBS was added, and the plate was incubated at 4° C. for 30 minutes. The wells were washed twice with pre-cooled PBS. The cells were then resuspended in pre-cooled PBS containing 2% FBS and assayed by flow cytometry.
row,IC50 [nM],Binder
1,0.78,B1
2,3.16,B2
3,4.54,B3
4,0.703,B4
